“And” between values parts separate entries of the source, which are not always exact repeats. Identical values can stand only once.
Tests used:
Assay in all cases: Efflux of pre-loaded L-[14C]alanine from HEK293-hLAT2 cells induced by extracellular compounds
Format in all cases: cell-based, human
Details in all cases: other: LAT2, L-[14C]alanine efflux, 1 min; mean ± S.E.M., n = 3; 37.0 °C
[1] = substrate: N[C@@H](Cc1ccccc1I)C(=O)O
Method: (§1) We evaluated the efflux of pre-loaded L-[^14C]leucine from LAT1 and pre-loaded L-[^14C]alanine from LAT2 induced by extracellularly applied compounds.
(§2) Efflux experiments were performed as described previously. Cells cultured 48 h were pre-loaded with 5 μM L-[^14C]leucine or L-[^14C]alanine for 10 min at 37 °C. The cells were then washed, and the efflux was induced by incubating cells for 1 min in either the absence or presence of non-radiolabeled test compounds at indicated concentrations. The efflux time of 1 min fell within the linear range of time-dependent substrate efflux mediated by LAT1 and LAT2 (Supplementary Fig. S2). Following incubation, the medium was collected and radioactivity was measured in both the medium and the cells. Efflux was quantified as the percentage of radioactivity released into the medium, calculated using the formula: radioactivity of medium/(radioactivity of medium + radioactivity of cells) × 100%.
(§3) The kinetic parameters for the efflux of L-[^14C]leucine or L-[^14C]alanine induced by various concentrations of extracellularly-applied test compounds were analyzed. The baseline efflux values—those obtained in the absence of test compounds—were subtracted from the values measured in the presence of the compounds. The resultant data were fitted to Michaelis–Menten kinetics to determine the Km and Vmax by nonlinear regression analysis using “enzyme kinetics-velocity as a function of substrate” module within GraphPad Prism software.

[2] = substrate: C[C@](N)(Cc1ccccc1)C(=O)O
Method: as §1, §2, §3

[3] = substrate: N[C@@H](Cc1ccccc1)C(=O)O
Method: as §1, §2, §3

[4] = substrate: N[C@]1(C(=O)O)CCc2ccccc2C1
Method: as §1, §2, §3

B1: human LAT2 (Homo sapiens) (protein)
chain: MEEGARHRNNTEKKHPGGGESDASPEAGSGGGGVALKKEIGLVSACGIIVGNIIGSGIFVSPKGVLENAGSVGLALIVWIVTGFITVVGALCYAELGVTIPKSGGDYSYVKDIFGGLAGFLRLWIAVLVIYPTNQAVIALTFSNYVLQPLFPTCFPPESGLRLLAAICLLLLTWVNCSSVRWATRVQDIFTAGKLLALALIIIMGIVQICKGEYFWLEPKNAFENFQEPDIGLVALAFLQGSFAYGGWNFLNYVTEELVDPYKNLPRAIFISIPLVTFVYVFANVAYVTAMSPQELLASNAVAVTFGEKLLGVMAWIMPISVALSTFGGVNGSLFTSSRLFFAGAREGHLPSVLAMIHVKRCTPIPALLFTCISTLLMLVTSDMYTLINYVGFINYLFYGVTVAGQIVLRWKKPDIPRPIKINLLFPIIYLLFWAFLLVFSLWSEPVVCGIGLAIMLTGVPVYFLGVYWQHKPKCFSDFIELLTLVSQKMCVVVYPEVERGSGTEEANEDMEEQQQPMYQPTPTKDKDVAGQPQP
notes: expressed in transfected cells
[1]
  Km: 35.34 ± 1.95 µM
[2]
  Km: 246.49 ± 23.00 µM
[3]
  Km: 25.21 ± 2.43 µM
[4]
  Km: 30 µM and 29.96 ± 4.00 µM

Reference: PMC10897196, “Structure–activity characteristics of phenylalanine analogs selectively transported by L-type amino acid transporter 1 (LAT1)” (Scientific Reports, 2024)
